Test results reported in paper PMC8695382 (Nature, 2021).

T1: Dia2 (Saccharomyces cerevisiae, UniProt Q08496 1-732)
T1 construct: Dia2, F-box protein, S. cerevisiae; model built for F-box (211–247), LRRs (248–716) and C-terminal tail (717–732); N-terminal TPR domain not visible; Subunit of m1 as it stands in the cryo-EM samples; also called Dia2^LRR (its leucine-rich repeat domain); source: purified as part of SCF^Dia2
T1 sequence: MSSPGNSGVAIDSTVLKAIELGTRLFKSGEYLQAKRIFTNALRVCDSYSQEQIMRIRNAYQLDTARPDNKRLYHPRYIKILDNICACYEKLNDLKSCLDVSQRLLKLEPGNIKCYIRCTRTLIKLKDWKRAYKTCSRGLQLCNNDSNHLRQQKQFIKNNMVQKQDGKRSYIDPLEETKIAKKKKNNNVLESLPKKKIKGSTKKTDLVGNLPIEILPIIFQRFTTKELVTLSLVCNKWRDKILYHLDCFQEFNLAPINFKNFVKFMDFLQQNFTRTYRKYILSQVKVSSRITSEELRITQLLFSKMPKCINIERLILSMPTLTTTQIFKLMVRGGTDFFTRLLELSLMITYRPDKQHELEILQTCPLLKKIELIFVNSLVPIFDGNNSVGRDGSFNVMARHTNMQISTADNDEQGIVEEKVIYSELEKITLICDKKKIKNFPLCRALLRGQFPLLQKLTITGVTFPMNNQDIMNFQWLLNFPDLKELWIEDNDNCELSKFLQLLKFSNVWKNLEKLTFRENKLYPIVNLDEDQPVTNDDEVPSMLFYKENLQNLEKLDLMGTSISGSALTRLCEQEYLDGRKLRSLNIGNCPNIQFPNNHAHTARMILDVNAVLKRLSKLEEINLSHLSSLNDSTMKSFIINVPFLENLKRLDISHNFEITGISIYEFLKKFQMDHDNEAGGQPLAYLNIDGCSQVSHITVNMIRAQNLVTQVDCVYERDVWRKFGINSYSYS

B1: Csm3 (natural protein, Saccharomyces cerevisiae)
chain: MDQDFDSLLLGFNDSDSVQKDPTVPNGLDGSVVDPTIADPTAITARKRRPQVKLTAEKLLSDKGLPYVLKNAHKRIRISSKKNSYDNLSNIIQFYQLWAHELFPKAKFKDFMKICQTVGKTDPVLREYRVSLFRDEMGMSFDVGTRETGQDLERQSPMVEEHVTSAEERPIVADSFAQDKRNVNNVDYDNDEDDDIYHLSYRNRRGRVLDERGNNETVLNNVVPPKEDLDALLKTFRVQGPVGLEENEKKLLLGWLDAHRKMEKGSMTEEDVQLIQSLEEWEMNDIEGQHTHYDLLPGGDEFGVDQDELDAMKEMGF
notes: Csm3, S. cerevisiae; Subunit of m12; source: purified as part of Tof1–Csm3
B2: Mcm7 (natural protein, Saccharomyces cerevisiae)
chain: MSAALPSIQLPVDYNNLFNEITDFLVTFKQDTLSSDATRNENEDENLDAENIEQHLLEKGPKYMAMLQKVANRELNSVIIDLDDILQYQNEKFLQGTQADDLVSAIQQNANHFTELFCRAIDNNMPLPTKEIDYKDDVLDVILNQRRLRNERMLSDRTNEIRSENLMDTTMDPPSSMNDALREVVEDETELFPPNLTRRYFLYFKPLSQNCARRYRKKAISSKPLSVRQIKGDFLGQLITVRGIITRVSDVKPAVEVIAYTCDQCGYEVFQEVNSRTFTPLSECTSEECSQNQTKGQLFMSTRASKFSAFQECKIQELSQQVPVGHIPRSLNIHVNGTLVRSLSPGDIVDVTGIFLPAPYTGFKALKAGLLTETYLEAQFVRQHKKKFASFSLTSDVEERVMELITSGDVYNRLAKSIAPEIYGNLDVKKALLLLLVGGVDKRVGDGMKIRGDINVCLMGDPGVAKSQLLKAICKISPRGVYTTGKGSSGVGLTAAVMKDPVTDEMILEGGALVLADNGICCIDEFDKMDESDRTAIHEVMEQQTISISKAGINTTLNARTSILAAANPLYGRYNPRLSPLDNINLPAALLSRFDILFLMLDIPSRDDDEKLAEHVTYVHMHNKQPDLDFTPVEPSKMREYIAYAKTKRPVMSEAVNDYVVQAYIRLRQDSKREMDSKFSFGQATPRTLLGIIRLSQALAKLRLADMVDIDDVEEALRLVRVSKESLYQETNKSKEDESPTTKIFTIIKKMLQETGKNTLSYENIVKTVRLRGFTMLQLSNCIQEYSYLNVWHLINEGNTLKFVDDGTMDTDQEDSLVSTPKLAPQTTASANVSAQDSDIDLQDA
notes: Mcm7, S. cerevisiae; Subunit of m2; source: purified as part of CMG
B3: Mcm2 (natural protein, Saccharomyces cerevisiae)
chain: MSDNRRRRREEDDSDSENELPPSSPQQHFRGGMNPVSSPIGSPDMINPEGDDNEVDDVPDIDEVEEQMNEVDLMDDNMYEDYAADHNRDRYDPDQVDDREQQELSLSERRRIDAQLNERDRLLRNVAYIDDEDEEQEGAAQLDEMGLPVQRRRRRRQYEDLENSDDDLLSDMDIDPLREELTLESLSNVKANSYSEWITQPNVSRTIARELKSFLLEYTDETGRSVYGARIRTLGEMNSESLEVNYRHLAESKAILALFLAKCPEEMLKIFDLVAMEATELHYPDYARIHSEIHVRISDFPTIYSLRELRESNLSSLVRVTGVVTRRTGVFPQLKYVKFNCLKCGSILGPFFQDSNEEIRISFCTNCKSKGPFRVNGEKTVYRNYQRVTLQEAPGTVPPGRLPRHREVILLADLVDVSKPGEEVEVTGIYKNNYDGNLNAKNGFPVFATIIEANSIKRREGNTANEGEEGLDVFSWTEEEEREFRKISRDRGIIDKIISSMAPSIYGHRDIKTAVACSLFGGVPKNVNGKHSIRGDINVLLLGDPGTAKSQILKYVEKTAHRAVFATGQGASAVGLTASVRKDPITKEWTLEGGALVLADKGVCLIDEFDKMNDQDRTSIHEAMEQQSISISKAGIVTTLQARCSIIAAANPNGGRYNSTLPLAQNVSLTEPILSRFDILCVVRDLVDEEADERLATFVVDSHVRSHPENDEDREGEELKNNGESAIEQGEDEINEQLNARQRRLQRQRKKEEEISPIPQELLMKYIHYARTKIYPKLHQMDMDKVSRVYADLRRESISTGSFPITVRHLESILRIAESFAKMRLSEFVSSYDLDRAIKVVVDSFVDAQKVSVRRQLRRSFAIYTLGH
notes: Mcm2, S. cerevisiae; Subunit of m2; source: purified as part of CMG
B4: Mcm5 (natural protein, Saccharomyces cerevisiae)
chain: MSFDRPEIYSAPVLQGESPNDDDNTEIIKSFKNFILEFRLDSQFIYRDQLRNNILVKNYSLTVNMEHLIGYNEDIYKKLSDEPSDIIPLFETAITQVAKRISILSRAQSANNNDKDPENTSMDTDSLLLNSLPTFQLILNSNANQIPLRDLDSEHVSKIVRLSGIIISTSVLSSRATYLSIMCRNCRHTTSITINNFNSITGNTVSLPRSCLSTIESESSMANESNIGDESTKKNCGPDPYIIIHESSKFIDQQFLKLQEIPELVPVGEMPRNLTMTCDRYLTNKVIPGTRVTIVGIYSIYNSKNGAGSGRSGGGNGGSGVAIRTPYIKILGIQSDVETSSIWNSVTMFTEEEEEEFLQLSRNPKLYEILTNSIAPSIFGNEDIKKAIVCLLMGGSKKILPDGMRLRGDINVLLLGDPGTAKSQLLKFVEKVSPIAVYTSGKGSSAAGLTASVQRDPMTREFYLEGGAMVLADGGVVCIDEFDKMRDEDRVAIHEAMEQQTISIAKAGITTVLNSRTSVLAAANPIYGRYDDLKSPGDNIDFQTTILSRFDMIFIVKDDHNEERDISIANHVINIHTGNANAMQNQQEENGSEISIEKMKRYITYCRLKCAPRLSPQAAEKLSSNFVTIRKQLLINELESTERSSIPITIRQLEAIIRITESLAKLELSPIAQERHVDEAIRLFQASTMDAASQDPIGGLNQASGTSLSEIRRFEQELKRRLPIGWSTSYQTLRREFVDTHRFSQLALDKALYALEKHETIQLRHQGQNIYRSGV
notes: Mcm5, S. cerevisiae; Subunit of m2; source: purified as part of CMG
B5: Dpb2 (natural protein, Saccharomyces cerevisiae)
chain: MFGSGNVLPVKIQPPLLRPLAYRVLSRKYGLSIKSDGLSALAEFVGTNIGANWRQGPATIKFLEQFAAVWKQQERGLFIDQSGVKEVIQEMKEREKVEWSHEHPIQHEENILGRTDDDENNSDDEMPIAADSSLQNVSLSSPMRQPTERDEYKQPFKPESSKALDWRDYFKVINASQQQRFSYNPHKMQFIFVPNKKQNGLGGIAGFLPDIEDKVQMFLTRYYLTNDRVMRNENFQNSDMFNPLSSMVSLQNELSNTNRQQQSSSMSITPIKNLLGRDAQNFLLLGLLNKNFKGNWSLEDPSGSVEIDISQTIPTQGHYYVPGCMVLVEGIYYSVGNKFHVTSMTLPPGERREITLETIGNLDLLGIHGISNNNFIARLDKDLKIRLHLLEKELTDHKFVILGANLFLDDLKIMTALSKILQKLNDDPPTLLIWQGSFTSVPVFASMSSRNISSSTQFKNNFDALATLLSRFDNLTENTTMIFIPGPNDLWGSMVSLGASGTLPQDPIPSAFTKKINKVCKNVVWSSNPTRIAYLSQEIVIFRDDLSGRFKRHRLEFPFNESEDVYTENDNMMSKDTDIVPIDELVKEPDQLPQKVQETRKLVKTILDQGHLSPFLDSLRPISWDLDHTLTLCPIPSTMVLCDTTSAQFDLTYNGCKVINPGSFIHNRRARYMEYVPSSKKTIQEEIYI
notes: Dpb2, subunit of DNA polymerase ε, S. cerevisiae; Subunit of m15; source: purified as part of Pol-ε

Experiments:
Test in all cases: cryo-EM structure; yeast replisome–SCF^Dia2 complexes after gradient fixation; particles translocated onto dsDNA (conformations I and II)
Conditions in all cases: both partners purified
[1] = target: T1, Dia2
[2] = target: T2, Mcm3 (Saccharomyces cerevisiae, UniProt P24279 1-971)
T2 construct: Mcm3, S. cerevisiae; Subunit of m2; source: purified as part of CMG

[3] = target: T3, Pol2 (Saccharomyces cerevisiae, UniProt P21951 1-2222)
T3 construct: Pol2, catalytic subunit of DNA polymerase ε, S. cerevisiae; catalytic domain ends at residue 1186, non-catalytic domain begins at residue 1321; Subunit of m15; source: purified as part of Pol-ε

[4] = target: B4

T3 sequence (P21951 whole entry, the tested form may be a part): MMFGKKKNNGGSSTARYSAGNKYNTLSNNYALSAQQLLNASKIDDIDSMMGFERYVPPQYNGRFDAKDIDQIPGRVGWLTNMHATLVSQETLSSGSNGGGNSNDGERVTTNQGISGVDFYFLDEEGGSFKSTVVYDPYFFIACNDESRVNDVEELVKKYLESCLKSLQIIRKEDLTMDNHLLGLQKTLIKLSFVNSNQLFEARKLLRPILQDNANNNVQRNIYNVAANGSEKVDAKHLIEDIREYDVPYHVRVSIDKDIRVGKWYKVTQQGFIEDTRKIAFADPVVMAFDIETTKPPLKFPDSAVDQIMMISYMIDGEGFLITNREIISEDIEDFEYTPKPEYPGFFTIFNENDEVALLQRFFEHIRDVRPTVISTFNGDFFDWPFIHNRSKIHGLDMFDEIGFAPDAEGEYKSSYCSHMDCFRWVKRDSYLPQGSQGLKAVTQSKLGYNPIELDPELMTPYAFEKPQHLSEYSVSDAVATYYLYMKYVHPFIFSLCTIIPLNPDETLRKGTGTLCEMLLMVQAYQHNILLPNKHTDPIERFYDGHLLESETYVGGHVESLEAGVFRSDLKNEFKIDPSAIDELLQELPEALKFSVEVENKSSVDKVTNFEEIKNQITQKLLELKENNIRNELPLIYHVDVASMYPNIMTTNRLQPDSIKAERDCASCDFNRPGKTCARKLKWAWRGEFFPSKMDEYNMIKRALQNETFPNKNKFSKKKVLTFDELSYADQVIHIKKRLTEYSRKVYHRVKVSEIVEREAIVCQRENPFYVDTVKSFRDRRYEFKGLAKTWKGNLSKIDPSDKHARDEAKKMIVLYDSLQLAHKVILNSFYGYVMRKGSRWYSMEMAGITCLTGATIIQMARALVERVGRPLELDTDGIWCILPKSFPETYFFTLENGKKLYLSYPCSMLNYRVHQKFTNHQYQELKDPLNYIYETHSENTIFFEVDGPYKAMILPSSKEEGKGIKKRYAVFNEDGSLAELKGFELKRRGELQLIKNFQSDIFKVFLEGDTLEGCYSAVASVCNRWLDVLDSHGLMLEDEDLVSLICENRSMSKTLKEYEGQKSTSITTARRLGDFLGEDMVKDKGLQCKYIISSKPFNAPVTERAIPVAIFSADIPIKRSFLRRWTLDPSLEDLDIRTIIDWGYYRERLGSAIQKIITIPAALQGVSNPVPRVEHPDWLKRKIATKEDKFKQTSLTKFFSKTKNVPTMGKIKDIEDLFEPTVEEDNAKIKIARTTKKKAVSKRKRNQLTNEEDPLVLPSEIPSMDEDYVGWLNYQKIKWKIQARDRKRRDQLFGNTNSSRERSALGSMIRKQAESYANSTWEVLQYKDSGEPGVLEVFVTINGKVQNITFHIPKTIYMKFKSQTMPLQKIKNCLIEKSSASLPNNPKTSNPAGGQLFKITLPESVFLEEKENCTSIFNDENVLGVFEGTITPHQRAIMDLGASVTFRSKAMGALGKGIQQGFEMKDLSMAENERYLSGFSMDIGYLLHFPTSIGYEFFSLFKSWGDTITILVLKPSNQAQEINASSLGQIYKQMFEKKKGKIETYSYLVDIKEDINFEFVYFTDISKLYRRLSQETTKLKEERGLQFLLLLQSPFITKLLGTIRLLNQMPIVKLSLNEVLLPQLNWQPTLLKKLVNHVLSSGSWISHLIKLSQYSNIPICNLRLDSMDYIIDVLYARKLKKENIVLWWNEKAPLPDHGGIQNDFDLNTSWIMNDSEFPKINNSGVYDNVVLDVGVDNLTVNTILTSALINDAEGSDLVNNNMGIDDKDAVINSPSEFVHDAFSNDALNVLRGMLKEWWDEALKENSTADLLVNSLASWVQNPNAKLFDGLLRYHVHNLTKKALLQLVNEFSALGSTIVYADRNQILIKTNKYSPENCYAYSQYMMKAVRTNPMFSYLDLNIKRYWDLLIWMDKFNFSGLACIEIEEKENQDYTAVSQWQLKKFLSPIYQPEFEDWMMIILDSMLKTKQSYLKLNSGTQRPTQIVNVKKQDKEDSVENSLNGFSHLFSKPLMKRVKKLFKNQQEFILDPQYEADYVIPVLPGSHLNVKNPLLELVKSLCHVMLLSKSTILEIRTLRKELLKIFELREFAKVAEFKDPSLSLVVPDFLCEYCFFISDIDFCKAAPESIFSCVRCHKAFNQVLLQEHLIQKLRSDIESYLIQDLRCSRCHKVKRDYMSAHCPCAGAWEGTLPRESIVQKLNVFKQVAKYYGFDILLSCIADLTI
T2 sequence (P24279 whole entry): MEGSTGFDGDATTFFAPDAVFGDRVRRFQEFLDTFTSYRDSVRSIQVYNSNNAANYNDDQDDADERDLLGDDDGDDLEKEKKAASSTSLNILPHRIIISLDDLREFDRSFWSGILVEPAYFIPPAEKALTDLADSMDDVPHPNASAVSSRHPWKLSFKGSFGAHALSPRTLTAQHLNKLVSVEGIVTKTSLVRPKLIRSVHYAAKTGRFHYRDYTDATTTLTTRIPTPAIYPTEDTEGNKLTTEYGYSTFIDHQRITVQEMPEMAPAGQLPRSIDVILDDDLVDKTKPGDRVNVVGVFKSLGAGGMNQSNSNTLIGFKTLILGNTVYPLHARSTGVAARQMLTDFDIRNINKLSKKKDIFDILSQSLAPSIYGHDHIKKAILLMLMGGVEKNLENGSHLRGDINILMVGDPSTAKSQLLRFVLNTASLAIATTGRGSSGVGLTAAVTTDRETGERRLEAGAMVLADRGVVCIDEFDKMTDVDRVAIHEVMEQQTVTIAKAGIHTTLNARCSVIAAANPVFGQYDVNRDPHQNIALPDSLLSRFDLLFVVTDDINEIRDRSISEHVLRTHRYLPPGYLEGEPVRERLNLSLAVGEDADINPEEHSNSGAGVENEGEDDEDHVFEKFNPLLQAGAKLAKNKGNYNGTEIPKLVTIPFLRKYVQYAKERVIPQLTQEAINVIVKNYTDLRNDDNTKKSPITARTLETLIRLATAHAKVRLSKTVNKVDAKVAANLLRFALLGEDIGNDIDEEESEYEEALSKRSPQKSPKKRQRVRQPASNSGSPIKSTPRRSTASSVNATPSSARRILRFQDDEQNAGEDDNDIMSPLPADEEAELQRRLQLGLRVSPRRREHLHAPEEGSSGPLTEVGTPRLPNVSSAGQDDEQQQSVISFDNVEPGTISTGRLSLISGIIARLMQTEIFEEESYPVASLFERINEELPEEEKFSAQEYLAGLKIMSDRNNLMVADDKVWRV

Binder: B1
- binding result [1]: binds

Binder: B2
- binding result [2]: binds

Binder: B3
- binding result [3]: binds

Binder: B4
- binding result [3]: binds

Binder: B5
- binding result [4]: binds
